These results are taken from publication PMC10943247 (2024).

Experiment [1] addresses CRL2^FEM1B complex with FEM1B^F549S, unneddylated (human, UniProt Q13617 1-745; P62877 1-108; Q15370 1-104; Q15369 17-112; Q9UK73 1-627, F549S).
Experiment [2] has as its target CRL2^FEM1B complex with FEM1B^Δ546-553 (FEM1B^DEL), unneddylated (human, UniProt Q13617 1-745; P62877 1-108; Q15370 1-104; Q15369 17-112; Q9UK73 1-627, Δ546-553).
Experiment [3] addresses CRL2^FEM1B complex with FEM1B^F549T, unneddylated (human, UniProt Q13617 1-745; P62877 1-108; Q15370 1-104; Q15369 17-112; Q9UK73 1-627, F549T).
Experiment [4] addresses CRL2^FEM1B complex with FEM1B^F549R, unneddylated (human, UniProt Q13617 1-745; P62877 1-108; Q15370 1-104; Q15369 17-112; Q9UK73 1-627, F549R).
The target in experiment [5] is CRL2^FEM1B complex with FEM1B^Y275R/L278R, unneddylated (human, UniProt Q13617 1-745; P62877 1-108; Q15370 1-104; Q15369 17-112; Q9UK73 1-627, Y275R | L278R).

B1: FNIP1/FLCN complex (complex)
chain 1: MAPTLFQKLFSKRTGLGAPGRDARDPDCGFSWPLPEFDPSQIRLIVYQDCERRGRNVLFDSSVKRRNEDISVSKLGSDAQVKVFGKCCQLKPGGDSSSSLDSSVTSSSDIKDQCLKYQGSRCSSDANMLGEMMFGSVAMSYKGSTLKIHQIRSPPQLMLSKVFTARTGSSICGSLNTLQDSLEFINQDNNTLKADNNTVINGLLGNIGLSQFCSPRRAFSEQGPLRLIRSASFFAVHSNPMDMPGRELNEDRDSGIARSASLSSLLITPFPSPNSSLTRSCASSYQRRWRRSQTTSLENGVFPRWSIEESFNLSDESCGPNPGIVRKKKIAIGVIFSLSKDEDENNKFNEFFFSHFPLFESHMNKLKSAIEQAMKMSRRSADASQRSLAYNRIVDALNEFRTTICNLYTMPRIGEPVWLTMMSGTPEKNHLCYRFMKEFTFLMENASKNQFLPALITAVLTNHLAWVPTVMPNGQPPIKIFLEKHSSQSVDMLAKTHPYNPLWAQLGDLYGAIGSPVRLARTVVVGKRQDMVQRLLYFLTYFIRCSELQETHLLENGEDEAIVMPGTVITTTLEKGEIEESEYVLVTMHRNKSSLLFKESEEIRTPNCNCKYCSHPLLGQNVENISQQEREDIQNSSKELLGISDECQMISPSDCQEENAVDVKQYRDKLRTCFDAKLETVVCTGSVPVDKCALSESGLESTEETWQSEKLLDSDSHTGKAMRSTGMVVEKKPPDKIVPASFSCEAAQTKVTFLIGDSMSPDSDTELRSQAVVDQITRHHTKPLKEERGAIDQHQETKQTTKDQSGESDTQNMVSEEPCELPCWNHSDPESMSLFDEYFNDDSIETRTIDDVPFKTSTDSKDHCCMLEFSKILCTKNNKQNNEFCKCIETVPQDSCKTCFPQQDQRDTLSILVPHGDKESSDKKIAVGTEWDIPRNESSDSALGDSESEDTGHDMTRQVSSYYGGEQEDWAEEDEIPFPGSKLIEVSAVQPNIANFGRSLLGGYCSSYVPDFVLQGIGSDERFRQCLMSDLSHAVQHPVLDEPIAEAVCIIADMDKWTVQVASSQRRVTDNKLGKEVLVSSLVSNLLHSTLQLYKHNLSPNFCVMHLEDRLQELYFKSKMLSEYLRGQMRVHVKELGVVLGIESSDLPLLAAVASTHSPYVAQILL
chain 2: MNAIVALCHFCELHGPRTLFCTEVLHAPLPQGDGNEDSPGQGEQAEEEEGGIQMNSRMRAHSPAEGASVESSSPGPKKSDMCEGCRSLAAGHPGYISHDKETSIKYVSHQHPSHPQLFSIVRQACVRSLSCEVCPGREGPIFFGDEQHGFVFSHTFFIKDSLARGFQRWYSIITIMMDRIYLINSWPFLLGKVRGIIDELQGKALKVFEAEQFGCPQRAQRMNTAFTPFLHQRNGNAARSLTSLTSDDNLWACLHTSFAWLLKACGSRLTEKLLEGAPTEDTLVQMEKLADLEEESESWDNSEAEEEEKAPVLPESTEGRELTQGPAESSSLSGCGSWQPRKLPVFKSLRHMRQVLGAPSFRMLAWHVLMGNQVIWKSRDVDLVQSAFEVLRTMLPVGCVRIIPYSSQYEEAYRCNFLGLSPHVQIPPHVLSSEFAVIVEVHAAARSTLHPVGCEDDQSLSKYEFVVTSGSPVAADRVGPTILNKIEAALTNQNLSVDVVDQCLVCLKEEWMNKVKVLFKFTKVDSRPKEDTQKLLSILGASEEDNVKLLKFWMTGLSKTYKSHLMSTVRSPTASESRN
By koff is commonly meant the rate constant with which the complex falls apart. Low values mean a long-lived complex, high ones a short-lived complex. In the case of B1, the koff in experiment [1] was 0.00178 s⁻¹; in experiment [2] it was 0.000955 s⁻¹; in experiment [3] it was 0.00184 s⁻¹; in experiment [4], 0.00141 s⁻¹; in experiment [5] it was 0.000653 s⁻¹.
